Substrate in the series: CCCCC/C=C\C/C=C\C/C=C\C/C=C\CCCC(=O)O
Description: cells, lysate or membranes named. The conditions noted are these: other: R53H, 0.025% Tween 20, 37 °C.

The values below come from PMC3376194.

B1: PGHS-1 R53H variant (Homo sapiens; R53H) (protein)
chain: ADPGAPTPVNPCCYYPCQHQGICVRFGLDHYQCDCTRTGYSGPNCTIPGLWTWLRNSLRPSPSFTHFLLTHGRWFWEFVNATFIREMLMRLVLTVRSNLIPSPPTYNSAHDYISWESFSNVSYYTRILPSVPKDCPTPMGTKGKKQLPDAQLLARRFLLRRKFIPDPQGTNLMFAFFAQHFTHQFFKTSGKMGPGFTKALGHGVDLGHIYGDNLERQYQLRLFKDGKLKYQVLDGEMYPPSVEEAPVLMHYPRGIPPQSQMAVGQEVFGLLPGLMLYATLWLREHNRVCDLLKAEHPTWGDEQLFQTTRLILIGETIKIVIEEYVQQLSGYFLQLKFDPELLFGVQFQYRNRIAMEFNHLYHWHPLMPDSFKVGSQEYSYEQFLFNTSMLVDYGVEALVDAFSRQIAGRIGGGRNMDHHILHVAVDVIRESREMRLQPFNEYRKRFGMKPYTSFQELVGEKEMAAELEELYGDIDALEFYPGLLLEKCHPNSIFGESMIEIGAPFSLKGLLGNPICSPEYWKPSTFGGEVGFNIVKTATLKKLVCLNTKTCPYVSFRVPDASQDDGPAVERPSTEL
As a reminder, the Km is the concentration of substrate that gives half-maximal velocity. As to B1, the Km is 1.9 ± 0.2 µM.
